Results published in patent US20220177587A1, “METHODS AND USES OF VARIANT CD80 FUSION PROTEINS AND RELATED CONSTRUCTS” (Alpine Immune Sciences, Inc., priority 2018, published 2022).
Like-named read-outs stand apart in the source and are kept apart here.

Key:
[1] = molecular target: human CTLA-4 (human) (UniProt P16410); test: flow cytometry, CHO cells expressing huCTLA4
[2] = molecular target: PD-L1 (human) (UniProt Q9NZQ7); test: flow cytometry, CHO cells expressing huPD-L1
Target sequence in this assay (Q9NZQ7 19-290): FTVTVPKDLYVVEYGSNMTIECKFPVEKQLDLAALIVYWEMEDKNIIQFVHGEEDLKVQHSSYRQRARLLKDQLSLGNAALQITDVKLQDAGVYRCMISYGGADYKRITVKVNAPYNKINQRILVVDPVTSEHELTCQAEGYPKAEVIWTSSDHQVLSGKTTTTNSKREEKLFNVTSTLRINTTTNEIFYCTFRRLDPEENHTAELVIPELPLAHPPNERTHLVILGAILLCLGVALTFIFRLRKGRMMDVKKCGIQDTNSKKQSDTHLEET

[3] = molecular target: human CTLA-4 (human) (UniProt P16410); test: flow cytometry, CHO cells expressing CTLA4
[4] = molecular target: PD-L1 (human) (UniProt Q9NZQ7); test: flow cytometry, MFI on PD-L1 over MFI on CD28
Target sequence in this assay (Q9NZQ7 19-290): as above

[5] = molecular target: CD28 (human) (UniProt P10747); test: flow cytometry, Jurkat cells (CD28)
[6] = molecular target: PD-L1 (human) (UniProt Q9NZQ7); test: flow cytometry, CHO cells expressing PD-L1
Target sequence in this assay (Q9NZQ7 19-290): as above

[7] = molecular target: PD-L1 (human) (UniProt Q9NZQ7); test: flow cytometry, CHO cells stably expressing PD-L1
Target sequence in this assay (Q9NZQ7 19-290): as above

[8] = molecular target: CD28 (human) (UniProt P10747)
[9] = molecular target: PD-L1 (human) (UniProt Q9NZQ7)
Target sequence in this assay (Q9NZQ7 19-290 limits assumed): as the sequence (Q9NZQ7 19-290) above

[10] = molecular target: CD28 (human) (UniProt P10747); test: flow cytometry, Jurkat cells (CD28); remark: listed apart in the source
[11] = molecular target: human CTLA-4 (human) (UniProt P16410); test: flow cytometry, CHO cells stably expressing CTLA4
[12] = molecular target: PD-L1 (human) (UniProt Q9NZQ7); test: flow cytometry, MFI on PD-L1 cells over MFI on CD28 cells
Target sequence in this assay (Q9NZQ7 19-290): as above

[13] = molecular target: CD28 (human) (UniProt P10747); test: flow cytometry, Jurkat/IL2 reporter cells (endogenous CD28)
[14] = molecular target: CD28 (human) (UniProt P10747); remark: listed apart in the source
[15] = molecular target: PD-L1 (human) (UniProt Q9NZQ7); remark: listed apart in the source
Target sequence in this assay (Q9NZQ7 19-290): as above

[16] = molecular target: CD28 (human) (UniProt P10747); remark: listed apart in the source
[17] = molecular target: PD-L1 (human) (UniProt Q9NZQ7); remark: listed apart in the source

Chain of human CTLA-4 (human) (P16410 36-223): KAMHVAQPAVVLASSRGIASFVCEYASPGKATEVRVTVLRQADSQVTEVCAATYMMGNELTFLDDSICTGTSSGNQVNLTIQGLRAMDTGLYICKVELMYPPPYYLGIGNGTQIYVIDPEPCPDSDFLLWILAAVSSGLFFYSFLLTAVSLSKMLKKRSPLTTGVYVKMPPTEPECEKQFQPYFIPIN

Row | Substance | Fold change to WT CD80 [7] | MFI at 33.3 nM [7] | IL-2 luciferase reporter, fold increase over WT CD80-IgV-Fc at 5.0 nM [8] | IL-2 luciferase reporter, fold increase over WT CD80-IgV-Fc at 5.0 nM [9] | Fold change to WT CD80 [10] | MFI at 33.3 nM [10] | Fold change to WT CD80 [11] | MFI at 33.3 nM [11] | Ratio of PDL1:CD28 [12] | other results
1 | variant CD80 IgV-Fc E35D/M47I/K54R/L85E (Fc fusion) | – | – | – | – | – | – | – | – | – | MFI at 33.3 nM [1]: 8660 MFI; MFI at 33.3 nM [2]: 36900 MFI
2 | CD80 E35D/M47L/V68M/E95V/L97Q IgV-Fc (Fc fusion) | – | – | – | – | – | – | – | – | – | Fold change to WT CD80 [3]: 8.5 fold; MFI at 33.3 nM [3]: 15000 MFI; Ratio of PDL1:CD28 [4]: 1300; Fold change to WT CD80 [5]: 0.5 fold; MFI at 33.3 nM [5]: 14 MFI; Fold change to WT CD80 [6]: 361 fold; MFI at 33.3 nM [6]: 18600 MFI
3 | variant CD80 IgV-Fc Q33L/E35D/M47V/T79A (Fc fusion) | – | – | – | – | – | – | – | – | – | MFI at 33.3 nM [1]: 28900 MFI; MFI at 33.3 nM [2]: 62100 MFI
4 | variant CD80 IgV-Fc Q33R/E35D/K37E/M47V/L85Q (Fc fusion) | – | – | – | – | – | – | – | – | – | MFI at 33.3 nM [13]: 258 MFI; MFI at 33.3 nM [2]: 44400 MFI
5 | variant CD80 IgV-Fc E24D/Q33L/E35D/M47V/K54R/L85Q (Fc fusion) | – | – | – | – | – | – | – | – | – | MFI at 33.3 nM [1]: 311000 MFI; MFI at 33.3 nM [2]: 67100 MFI
6 | CD80 E35D/M47I/L70M IgV-Fc (inert) (Fc fusion) | – | – | – | – | – | – | – | – | – | IL-2 release, primary T cells + K562/OKT3/PD-L1, 100 nM [14]: 8390; IL-2 release, primary T cells + K562/OKT3/PD-L1, 100 nM [15]: 8390; Jurkat/IL2 reporter RLU at 50 nM, CHO/OKT3/PD-L1 aAPC [16]: 2630 RLU; Jurkat/IL2 reporter RLU at 50 nM, CHO/OKT3 aAPC without PD-L1 [16]: 600 RLU; Jurkat/IL2 reporter RLU at 50 nM, CHO/OKT3/PD-L1 aAPC [17]: 2630 RLU
7 | variant CD80 IgV-Fc H18Y/A26E/E35D/M47L/V68M/D90G (Fc fusion) | 578 fold | 25200 MFI | 2.29 fold | 2.29 fold | 60.9 fold | 2680 MFI | 18.3 fold | 24900 MFI | 9.4 | –
8 | CD80 E35D/D46V/L85Q IgV-Fc (inert) (Fc fusion) | – | – | – | – | – | – | – | – | – | IL-2 release, primary T cells + K562/OKT3/PD-L1, 100 nM [14]: 1430; IL-2 release, primary T cells + K562/OKT3/PD-L1, 100 nM [15]: 1430; Jurkat/IL2 reporter RLU at 50 nM, CHO/OKT3 aAPC without PD-L1 [16]: 720 RLU
9 | variant CD80 IgV-Fc H18Y/A26E/E35D/M47L/D90G (Fc fusion) | 291 fold | 12700 MFI | 2.37 fold | 2.37 fold | 31.4 fold | 1380 MFI | 14.5 fold | 19700 MFI | 9.2 | –
10 | CD80 E35D IgV-Fc (inert) (Fc fusion) | – | – | – | – | – | – | – | – | – | IL-2 release, primary T cells + K562/OKT3/PD-L1, 100 nM [14]: 2740; IL-2 release, primary T cells + K562/OKT3/PD-L1, 100 nM [15]: 2740; Jurkat/IL2 reporter RLU at 50 nM, CHO/OKT3/PD-L1 aAPC [16]: 1610 RLU; Jurkat/IL2 reporter RLU at 50 nM, CHO/OKT3 aAPC without PD-L1 [16]: 448 RLU; Jurkat/IL2 reporter RLU at 50 nM, CHO/OKT3/PD-L1 aAPC [17]: 1610 RLU

Second part, led by results:

Row | Fold change to WT CD80 [7] | MFI at 33.3 nM [7] | IL-2 luciferase reporter, fold increase over WT CD80-IgV-Fc at 5.0 nM [8] | IL-2 luciferase reporter, fold increase over WT CD80-IgV-Fc at 5.0 nM [9] | Fold change to WT CD80 [10] | MFI at 33.3 nM [10] | Fold change to WT CD80 [11] | MFI at 33.3 nM [11] | Ratio of PDL1:CD28 [12] | Substance | other results
11 | 340 fold | 14800 MFI | 2.45 fold | 2.45 fold | 24.5 fold | 1080 MFI | -0.1 fold | -100 MFI | 13.8 | variant CD80 IgV-Fc H18Y/A26E/E35D/A71G/D90G (Fc fusion) | –
12 | 387 fold | 16900 MFI | 2.42 fold | 2.42 fold | 8.6 fold | 379 MFI | 14.2 fold | 19400 MFI | 44.6 | variant CD80 IgV-Fc H18Y/A26E/E35D/M47L/A71G (Fc fusion) | –
13 | 658 fold | 28700 MFI | 2.41 fold | 2.41 fold | 40 fold | 1760 MFI | 17.2 fold | 23400 MFI | 16.3 | variant CD80 IgV-Fc H18Y/A26E/E35D/V68M/A71G/D90G (Fc fusion) | –
14 | 566 fold | 24700 MFI | 2.29 fold | 2.29 fold | 14.3 fold | 626 MFI | 14.7 fold | 20000 MFI | 39.4 | variant CD80 IgV-Fc H18Y/A26E/E35D/M47L/V68M (Fc fusion) | –
15 | 630 fold | 27500 MFI | 2.46 fold | 2.46 fold | 9 fold | 394 MFI | 14.3 fold | 19400 MFI | 69.7 | variant CD80 IgV-Fc H18Y/A26E/E35D/V68M/A71G (Fc fusion) | –
16 | 639 fold | 27900 MFI | 2.5 fold | 2.5 fold | 61.1 fold | 2680 MFI | 13.5 fold | 18300 MFI | 10.4 | variant CD80 IgV-Fc H18Y/A26E/V68M/A71G/D90G (Fc fusion) | –
